For test [1], the target named is T1, VEGF (UniProt P15692-4 27-191, limits assumed, biotin-labelled (Sulfo-NHS biotin, molar ratio 2:1) in the BLI assay; unlabelled in the competition ELISA).
T1 construct: also called biotin-labeled VEGF
As to the kind of experiment: BLI (Octet-QK), biotin-VEGF on SA probe; repeat 1. The text has this: (§1) The binding affinities of the fusion proteins were detected using BLI (Bio-layer inteferometry, ForteBio). […] Excess biotin not involved in labeling was removed by dialysis. […] The buffer used in the experiment was PBS (containing 0.1% Tween-20). […] Based on the program settings, the fusion proteins were bound, and then dissociated in PBST solution, to obtain the experimental curves. According to the result analysis software of Octet-QK, local full was used to fit the curves of the experimental results, then kon, kdis and Kd were determined.
For orientation: BLI is a label-free optical method that tracks binding on a fibre tip over time.

Test [2] has as its target T1, VEGF. As to the kind of experiment: BLI (Octet-QK), biotin-VEGF on SA probe; repeat 2.
Source text: as §1

Test [3] deals with T1, VEGF. As to the kind of experiment: BLI (Octet-QK), biotin-VEGF on SA probe; repeat 3.
Source text: as §1

The target of test [4] is T1, VEGF. The test can be described thus: BLI (Octet-QK), biotin-VEGF on SA probe; average of 3 repeats (STD 0.10).
Source text: as §1

Test [5] deals with T1, VEGF. The test can be described thus: competition ELISA: inhibition of VEGF binding to plate-coated VEGF Receptor 2 (KDR). As for the experimental part:
(§2) The plate was then blocked with 1% BSA/TBS and placed at 37° C. for 1 h; 1% BSA/TBS was added to the plate, 200 μL per well, and placed at 37° C. for 2 h.
(§3) Then, the stock solutions were diluted by 3 times to a total of 11 concentrations. […] The KDR-coated ELISA plate was washed twice and pat-dried. The mixture was successively transferred to the ELISA plate and placed at 37° C. for 1 h, then the plate was washed for 6 times. […] The plate was placed at 37° C. for 1 h and washed for 6 times. Then, goat anti-rat secondary antibody (Pierce, 31432, QA1969921) diluted at 1:1000 was added, 50 μL per well. The plate was placed at 37° C. for 1 h and washed for 6 times. Color developing solution was added after reaction, and the plated was incubated at 37° C. for 15 min. Stop buffer was added to terminate the color reaction. OD450 values were read on a microplate reader.

Test [6] deals with T1, VEGF. The test can be described thus: competition ELISA: sample pre-mixed with VEGF, mixture put on a plate coated with VEGF Receptor 2 (KDR), bound VEGF detected with mouse anti-human VEGF antibody, OD450; blocked ligand-receptor pair VEGF/KDR. As to the method:
as §2, §3
(An ELISA detects its analyte on a solid surface through an enzyme-linked reagent.)

The target of test [7] is T1, VEGF. As to the kind of experiment: BLI (Octet-QK), biotin-VEGF on SA probe; average of 3 repeats (STD 0.05).
Source text: as §1

For test [8], the target named is T1, VEGF. As to the kind of experiment: BLI (Octet-QK), biotin-VEGF on SA probe; average of 3 repeats (STD 0.11).
Source text: as §1

T1 sequence (P15692 other isoform, or with tags, fused parts or gaps limits assumed): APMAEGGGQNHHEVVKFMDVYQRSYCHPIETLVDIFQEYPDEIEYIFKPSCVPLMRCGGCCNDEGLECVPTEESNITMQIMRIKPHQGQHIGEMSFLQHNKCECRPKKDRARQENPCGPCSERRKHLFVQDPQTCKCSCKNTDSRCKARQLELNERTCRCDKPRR

B1: ankyrin repeat protein binding to VEGF (ARVEGF) (designed binder)
chain: GSDLDKKLLEAARAGQDDEVRILMANGADVNARDSTGWTPLHLAAPWGHPEIVEVLLKNGADVNAADFQGWTPLHLAAAVGHLEIVEVLLKYGADVNAQDKFGKTAFDISIDNGNEDLAEILQKAA
notes: Its preparation and any tag are not described
The Kd is the free concentration of one partner at which half of the binding sites on the other are occupied at equilibrium, for simple one-to-one binding. Usually IC50 stands for the point on the concentration scale where inhibition reaches its midpoint. With B1, the Kd stood at 580 pM in test [1], 690 pM in test [2], 770 pM in test [3] and 680 pM in test [4]. Also, the IC50 in test [5] was 650 pM. The “IC50 (read off the curve)” value in test [6] was roughly 300 pM.

B2: PU73x49-ARVEGF (designed binder)
chain: APAEAPAAAEEAPPAEPAPEAPAEAPAAAEEAPPAEPAPEAPAEAPAAAEEAPPAEPAPEAPAEAPAAAEEAPPAEPAPEAPAEAPAAAEEAPPAEPAPEAPAEAPAAAEEAPPAEPAPEAPAEAPAAAEEAPPAEPAPEAPAEAPAAAEEAPPAEPAPEAPAEAPAAAEEAPPAEPAPEAPAEAPAAAEEAPPAEPAPEAPAEAPAAAEEAPPAEPAPEAPAEAPAAAEEAPPAEPAPEAPAEAPAAAEEAPPAEPAPEAPAEAPAAAEEAPPAEPAPEAPAEAPAAAEEAPPAEPAPEAPAEAPAAAEEAPPAEPAPEAPAEAPAAAEEAPPAEPAPEAPAEAPAAAEEAPPAEPAPEAPAEAPAAAEEAPPAEPAPEAPAEAPAAAEEAPPAEPAPEAPAEAPAAAEEAPPAEPAPEAPAEAPAAAEEAPPAEPAPEAPAEAPAAAEEAPPAEPAPEAPAEAPAAAEEAPPAEPAPEAPAEAPAAAEEAPPAEPAPEAPAEAPAAAEEAPPAEPAPEAPAEAPAAAEEAPPAEPAPEAPAEAPAAAEEAPPAEPAPEAPAEAPAAAEEAPPAEPAPEAPAEAPAAAEEAPPAEPAPEAPAEAPAAAEEAPPAEPAPEAPAEAPAAAEEAPPAEPAPEAPAEAPAAAEEAPPAEPAPEAPAEAPAAAEEAPPAEPAPEAPAEAPAAAEEAPPAEPAPEAPAEAPAAAEEAPPAEPAPEAPAEAPAAAEEAPPAEPAPEAPAEAPAAAEEAPPAEPAPEAPAEAPAAAEEAPPAEPAPEAPAEAPAAAEEAPPAEPAPEAPAEAPAAAEEAPPAEPAPEAPAEAPAAAEEAPPAEPAPEAPAEAPAAAEEAPPAEPAPEAPAEAPAAAEEAPPAEPAPEAPAEAPAAAEEAPPAEPAPEAPAEAPAAAEEAPPAEPAPEAPAEAPAAAEEAPPAEPAPEAPAEAPAAAEEAPPAEPAPEAPAEAPAAAEEAPPAEPAPEGSDLDKKLLEAARAGQDDEVRILMANGADVNARDSTGWTPLHLAAPWGHPEIVEVLLKNGADVNAADFQGWTPLHLAAAVGHLEIVEVLLKYGADVNAQDKFGKTAFDISIDNGNEDLAEILQKAA
notes: also called PU-ARVEGF fusion protein
For the molecule B2, the Kd turned out to be 620 pM in test [1], 610 pM in test [2], 700 pM in test [3] and 640 pM in test [7]. Besides, the half-maximal inhibitory concentration (IC50) in test [5] turned out to be 550 pM. In addition, the “IC50 (read off the curve)” value in test [6] is roughly 300 pM.

B3: PU98x43-ARVEGF (designed binder)
chain: AEPAAPAPAEPAAPAPEAPAAEPAAPAPAEPAAPAPEAPAAEPAAPAPAEPAAPAPEAPAAEPAAPAPAEPAAPAPEAPAAEPAAPAPAEPAAPAPEAPAAEPAAPAPAEPAAPAPEAPAAEPAAPAPAEPAAPAPEAPAAEPAAPAPAEPAAPAPEAPAAEPAAPAPAEPAAPAPEAPAAEPAAPAPAEPAAPAPEAPAAEPAAPAPAEPAAPAPEAPAAEPAAPAPAEPAAPAPEAPAAEPAAPAPAEPAAPAPEAPAAEPAAPAPAEPAAPAPEAPAAEPAAPAPAEPAAPAPEAPAAEPAAPAPAEPAAPAPEAPAAEPAAPAPAEPAAPAPEAPAAEPAAPAPAEPAAPAPEAPAAEPAAPAPAEPAAPAPEAPAAEPAAPAPAEPAAPAPEAPAAEPAAPAPAEPAAPAPEAPAAEPAAPAPAEPAAPAPEAPAAEPAAPAPAEPAAPAPEAPAAEPAAPAPAEPAAPAPEAPAAEPAAPAPAEPAAPAPEAPAAEPAAPAPAEPAAPAPEAPAAEPAAPAPAEPAAPAPEAPAAEPAAPAPAEPAAPAPEAPAAEPAAPAPAEPAAPAPEAPAAEPAAPAPAEPAAPAPEAPAAEPAAPAPAEPAAPAPEAPAAEPAAPAPAEPAAPAPEAPAAEPAAPAPAEPAAPAPEAPAAEPAAPAPAEPAAPAPEAPAAEPAAPAPAEPAAPAPEAPAAEPAAPAPAEPAAPAPEAPAAEPAAPAPAEPAAPAPEAPAAEPAAPAPAEPAAPAPEAPAAEPAAPAPAEPAAPAPEAPAAEPAAPAPAEPAAPAPEAPAAEPAAPAPAEPAAPAPEAPAAEPAAPAPAEPAAPAPEAPAAEPAAPAPAEPAAPAPEAPAGSDLDKKLLEAARAGQDDEVRILMANGADVNARDSTGWTPLHLAAPWGHPEIVEVLLKNGADVNAADFQGWTPLHLAAAVGHLEIVEVLLKYGADVNAQDKFGKTAFDISIDNGNEDLAEILQKAA
notes: as for B2
For B3, the Kd in test [1] came out at 630 pM; in test [2], 490 pM; in test [3], 420 pM; in test [8], 510 pM. Besides, the IC50 in test [5] was 510 pM. Further, the “IC50 (read off the curve)” value in test [6] was roughly 300 pM.

For the origin of these results see patent US20220119448A1 (ZHEJIANG DOER BIOLOGICS, published 2022).
